This experiment concerns the target FuBc protein (recombinant protein of the fusion loop and Bc loop of domain II of dengue envelope protein with their neighbouring residues) (DENV-2 (of the template structure PDB 1OAN)). Nature of the experiment: SPR; Biacore T200; FuBc immobilised by amine coupling; scFv injected at 10 uM down to 50 nM, 20 ul/min over 2 min; regeneration with 2 M NaCl; control flow cell subtracted; KD as kd/ka. On the technique in general: SPR reads the build-up and loss of mass on a sensor chip optically.

Sequence of 3IXY scFv antibody (VH and VL of the anti-fusion loop dengue E53 Fab, PDB 3IXY, joined by a (G4S)3 linker) (VH): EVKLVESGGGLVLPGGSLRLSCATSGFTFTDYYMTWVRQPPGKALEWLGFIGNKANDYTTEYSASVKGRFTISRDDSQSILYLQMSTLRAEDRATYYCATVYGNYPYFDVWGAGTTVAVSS
Sequence of 3IXY scFv antibody (VH and VL of the anti-fusion loop dengue E53 Fab, PDB 3IXY, joined by a (G4S)3 linker) (VL): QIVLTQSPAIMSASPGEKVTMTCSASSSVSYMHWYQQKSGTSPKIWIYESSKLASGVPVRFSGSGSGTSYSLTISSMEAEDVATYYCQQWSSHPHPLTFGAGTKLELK

Take “3IXY scFv antibody (VH and VL of the anti-fusion loop dengue E53 Fab, PDB 3IXY, joined by a (G4S)3 linker)”: the Kd came to 2300 nM.

In general, Kd refers to the free concentration of one partner at which half of the binding sites on the other are occupied at equilibrium, for simple one-to-one binding.
